target: T1, Mtu DnaB intein (IVPS) (Mycobacterium tuberculosis, UniProt P9WMR3); assay type: cell-based; details: E. coli, peptide in chicken α-spectrin loop on pEA825 (wild type Mtu dnaB), 37° C., 1 mM IPTG for 3 hours, crude cell extracts, anti-T7 tag immuno-staining
T1 sequence (P9WMR3 whole entry, looked up): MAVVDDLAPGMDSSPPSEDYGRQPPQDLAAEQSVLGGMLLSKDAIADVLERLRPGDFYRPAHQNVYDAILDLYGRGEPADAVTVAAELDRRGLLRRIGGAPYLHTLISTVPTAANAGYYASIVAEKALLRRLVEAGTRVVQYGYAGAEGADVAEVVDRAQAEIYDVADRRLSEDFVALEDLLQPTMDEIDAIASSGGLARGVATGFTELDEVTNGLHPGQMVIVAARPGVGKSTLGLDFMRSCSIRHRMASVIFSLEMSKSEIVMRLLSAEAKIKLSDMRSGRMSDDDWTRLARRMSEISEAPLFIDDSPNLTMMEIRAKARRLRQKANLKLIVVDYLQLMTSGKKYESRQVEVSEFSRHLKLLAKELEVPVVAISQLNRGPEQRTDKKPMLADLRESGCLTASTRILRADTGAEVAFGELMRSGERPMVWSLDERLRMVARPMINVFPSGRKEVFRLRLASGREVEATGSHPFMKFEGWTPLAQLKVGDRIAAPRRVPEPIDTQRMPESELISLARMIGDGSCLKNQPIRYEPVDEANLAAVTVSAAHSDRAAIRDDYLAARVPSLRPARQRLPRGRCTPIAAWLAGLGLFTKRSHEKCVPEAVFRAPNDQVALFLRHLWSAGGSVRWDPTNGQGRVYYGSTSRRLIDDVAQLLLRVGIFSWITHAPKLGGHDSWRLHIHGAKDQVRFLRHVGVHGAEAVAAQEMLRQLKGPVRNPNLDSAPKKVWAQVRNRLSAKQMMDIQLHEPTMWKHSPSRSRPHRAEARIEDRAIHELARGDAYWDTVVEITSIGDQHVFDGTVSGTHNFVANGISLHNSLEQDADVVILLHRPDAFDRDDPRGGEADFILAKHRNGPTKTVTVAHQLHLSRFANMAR

Substance | protein splicing of the Mtu DnaB intein (detection of Mtu DnaB protein splicing products)
PTARTYE [pEA816] | selected for inhibition of splicing
RPAPRPL [pEA815] | selected for inhibition of splicing
PTRPTAPPLNFS [pEA817] | selected for inhibition of splicing
HPNPHPTLSGQR [pEA818] | selected for inhibition of splicing
DLPMVEE [pEA818rev, reference compound] | occurred as efficiently as with the pMtu DnaB clone
TVQSTKR [pEA814] | selected for inhibition of splicing

Source: patent publication US7157224B2, “Screening and use of agents which block or activate intein splicing utilizing natural or homologous exteins” (priority 1992, dated 2007)
